In the RNAGym collection of RNA variant scans (doi:10.1073/pnas.2313332121):

B1: TPR t1 (parent)
chain: GACCAAUCUGCCCUCAGAGCUCGAGAACAUCUUCGGAUGCAGAGGAGGCAGGCUUCGGUGGCGCGAUAGCGCCAACGUCCUCAACCUCCAAUGCAUCCCACCACAUGAUGAUGCCUGAAGAGCCUUGGUUUUUUG

Variants of: B1
Assay: polymerase ribozyme fitness, log enrichment relative to wild type (log ratio); higher = more active; in vitro selection for triplet polymerase activity
How it was run: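 Mutant libraries of each subunit of a heterodimeric triplet polymerase ribozyme were built by PCR and transcribed. Each library went through one round of in vitro selection in triplicate: annealing with biotinylated primer, partner subunit and triplets, frozen incubation at −7 °C, gel excision of extended constructs, streptavidin-bead capture and RT-PCR. Input and output libraries were Illumina-sequenced; only genotypes with ≥10 input reads and ≥1 read per output were kept. Fitness is log2(genotype enrichment/wild-type enrichment), using inverse-variance-weighted replicate averages.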

Variant | polymerase ribozyme fitness (log ratio)
C15A C64U | -2.36
C53A C72A | -1.56
A27U A46G C72U G120A | -2.7
C40U A50G U130C | -0.13
C70U U126C | -0.89
A50C G61U C79G | -2.93
C49U U78G U96A G113A C115A | -5.23
A18C U112G | -3
C82A U133A | -0.323
C28U C64U | -2.29
C40U C62U C85G | -2.44
U112A C123G | 0.872
G45A C97U | -2.83
C70G U78A G93C | -2.76
A41G G48U A121U | 1.04
G10U C34A G47A | -3.85
C3U G42U | -1.55
C28G C40U C53U C56G A91C C115U U129A | -5.15
C53G U54G G63C | -3.77
G110U G122A | -2.47
G48A A66U | -2.3
A50U G57U | -1.1
A18U U54A C72G | -2.46
U7G C28A G57U G110C | -1.2

Variant | polymerase ribozyme fitness (log ratio)
C22G C49U G110C | -5.9
A26U G47C G77A U78A | -5.33
U32C U116A | -3.4
U78C C94U U112C | 0.656
C22G C123U | -2.66
U78C C114G | -2.46
C62G G63U | -7.04
U14C C104U | -0.978
C56G G58U U59C C124A | 1.88
C11U C15A C49A C73G C85A G120A | -4.65
C62U U78C A100U | -0.796
G44A C82U C101G | -2.82
C31U G63U | -3.29
G51A G52A U112A U116C G128A | -6.33
C3U C86U C104A | -1.75
A6U G45U | -1.59
C64U C73G C94U G120C | -3.99
C13U A66U U116C | -0.492
C12G C20U A66U G69A | -5.04
C15A C80U | -1.68
U87A C97U | -0.196
A43U G48A | -1.56
G48A C53G U55C G69A | -2.78
G48C C49G C82U C124A G127C U133C G135U | -0.601

Variant | polymerase ribozyme fitness (log ratio)
C40A G63U C104U C115G | -3.72
C72G C88U A91C A118U G122U | -2.76
A2U G57C | -2.3
C22U C40G G63A A74U A75U | -5.63
G42C A103G C114G G122U | -6.92
G63C U81C | -0.941
G71A C73U C101A U132A | -2.2
A46U C49U A74U C102U | -4.53
C13U C85U C86G U106A | -0.767
C13U G57A G110U | -1.9
G25U G44U C56A C70U U109G | -7.02
C98A C124A | -2.34
U21A C72G | -0.599
C34A G120A C124G U133A | 0.189
C72U C114A | -1.67
U9G A37C G44U | -1.47
C123G G128C | -0.446
C72A G113C | -2.03
C34A G117C | -4.31
A50U G60C C123A G127C U132C | -0.878
G42A U81C U129G | -4.71
C11G G45A C53G G57U C104G C114U | -6.51
G63A C64A U81G C115G | -6.59
C20G C53U G113U | -0.634

Variant | polymerase ribozyme fitness (log ratio)
C8G C12A G17C A29G A46U G47A C72U | -6.22
G60U G61A | -0.341
G61U A83U A91C U96A | -1.27
C8U A121G | 1.42
A105C C114A A121G | -3.08
C15U U21C C49G C62A G117A | -1.27
C13G C72U U132A | -2.7
G61C C72U | 0.273
C40U A41C C79A U92A | -5.35
G52U U96A | -2.01
C64A U112C | -4.53
C70U G120A | 0.259
U7A C72U | -0.218
C4G G36U | -2.8
G39A C56G | -1.24
A43G U92A | -2.96
G47C U126A | -4.53
C49U A95G U112A | 0.0263
G25C G42U G44U C104U C124U | -7.89
U33G C94G G113A | -5.56
C70U A100U | -1.33
G60A C72G C101U | -1.15
C53U C89U C104A C115U C124A U133G | -4.17
C12U G52A U78A | -0.0318

Variant | polymerase ribozyme fitness (log ratio)
A29U U87G A90C | -3.17
C13G G127U | -2.53
A26G A66U A84U G110U G135U | -5.61
A6C C82A C89A | -2.13
A29C A75G C124G U129C | -1.16
A16C C22U | -5.8
C11U G47C G71U U92G G113C | -5.32
C88A C98A | -4.39
C73G C89A C99A G110C | -6.57
G71C A100C | -2.78
U9G U21A G127A | -0.983
C73A U130C | -0.0885
C15U C64G A90C C114U G128A | -6.98
G44A C99U | -4.58
G45U G47U G113A | -3.45
G52C G71U | -0.867
C20G G47C | -5.65
C56G C85A | -2.26
C40U C49A C73U C98G | -6.1
G57A G127U | -1.83
G63A C88U A118C | -3.02
U87G C102U | -0.897
A50C C56G A105U G120C | -2.11
A43C G117C | -4.86

Variant | polymerase ribozyme fitness (log ratio)
C11A A50G U81A | -2.23
C40G C53G G77A U106C U116C | -3.58
C22U G45A C89U A121C C124G U125A | -5.69
G120C G128U | -0.74
A50G G57A C72U U96C C114U | -4.36
A18C C22U C40U G71U A118U | -6.12
C49A C73A C88U A91U | -1.03
G25C C123G | -5.25
A43C C53G C70U A95C | -5.1
A84G C88U C124U | 0.679
U55G A121C G135U | 1.07
C11A C49U G93A U129A | -3.29
G58A A84U | -0.731
U7G U21A A26G G47U C123U U129A U133G | -3.24
C12A C15U C70U C86U | -2.81
A5U G110U U130A | -2.41
C88A U116A | -3.6
C56A C82U | -0.413
A41U C56U G110A | -2.95
G10C A66G A83U | -1.48
G10C A16U C115A | -2.52
A2U G10U G42A C88U C89G U92G C115G | -6.18
U7A A16C | -0.994
G93C C104U A108G | -2.77

Variant | polymerase ribozyme fitness (log ratio)
G10A G17A U106A | -3.51
G23A C49U C56A U116C | -6.08
C20A C79A U131A | -3.6
C12A U21A A46C C73A U87G | -0.648
C13U C64G U87G G120A C123G | -5.41
G71A G77U | -1.13
U33A G48U G69U C97G | -3.18
G51A C72G | -2.71
G36C G44C U81G A121C | -3.56
C56U U96G | -0.658
C40G G57A G61U G113A A121G G122A | -2.96
A29U C94U A121U | -0.384
G63U A84G | -2.18
U21A A50C A68G | -6.32
C12A G23A G77U A119G | -5.67
C20A G42U G47U C53U G120U | -3.98
G61A G110U | -0.817
G58A A83C | -0.717
A105C U133A | -2.08
G52A C53U | -0.621
C123U G128C | -0.354
A41U C53G G113C | -3.41
G60U C102U A108G | -3.29
